The record followed here is US20240287479A1, “GLYCOSYLTRANSFERASE MUTANT, AND METHOD FOR CATALYTIC SYNTHESIS OF REBAUDIOSIDE M USING GLYCOSYLTRANSFERASE MUTANT” (XINGHUA GL STEVIA CO., LTD, priority 2021, published 2024).

The Km is the substrate concentration at which the rate is half of its maximum.

Holding throughout (format): biochemical
Data set [1] is described as follows: Kinetic parameters of purified glycosyltransferases for rebaudioside D. The note with it: substrate RebD, purified enzyme. How it is done: (§1) Activities of glycosyltransferase mutants and a WT glycosyltransferase were determined. A 3 mL catalytic reaction system was prepared from the following components: 1.2 mM rebaudioside E, 2 mM UDPG, 3 mM MgCl2, crude enzyme: 1 mg, and 100 mM potassium phosphate buffer with a pH of 7.2: the balance. A catalytic reaction was conducted on a shaker at 37° C. and 200 rpm, where a sample was collected at 0 min and 30 min. Sample treatment: 500 μL of a sample solution was pipetted and added to an EP tube; the EP tube was placed in boiling water at 95° C. for 15 min to stop a reaction, and then centrifuged in a centrifuge at 12,000 rpm for 1 min; and a resulting supernatant was collected and added to a new EP tube, filtered through an organic filter membrane (0.45 μm), and stored in a liquid-phase sample bottle for high-performance liquid chromatography (HPLC) analysis. Definition of an enzyme activity (U): an enzyme amount required for producing 1 μmol of a product within 1 min is defined as 1 enzyme activity unit.
(§2) A final concentration of rebaudioside E was set to 10 μM to 2,000 μM or a final concentration of rebaudioside D was set to 50 μM to 2,000 μM. Rebaudioside E or rebaudioside D solutions of different concentrations each were mixed with an appropriate amount of each of the purified WT UGT76G1 and the mutant S195Q, and an enzyme activity was determined according to the enzyme activity assay method described above. A Michaelis Menten equation was used to calculate Kn, Vmax, Keat, and Keat/Km of the purified WT glycosyltransferase and the glycosyltransferase mutant.

Data set [2] can be described thus: Kinetic parameters of purified glycosyltransferases for rebaudioside E. Particulars: substrate RebE, purified enzyme. How it is done: as §1, §2
A short description of data set [3]: Preliminary screening: conversion of RebE by crude recombinases. The note with it: 40° C., 12 h; for catalytic activity / conversion rate for RebE (in words): RebE 10 g/L. As to the method: Recombinases were prepared with the mutant strains G87D-StSUS1, S147D-StSUS1, S147N-StSUS1, S195Q-StSUS1, L200Y-StSUS1, T284S-StSUS1, S285W-StSUS1, and G378P-StSUS1 and the WT strain UGT76G1-StSUS1, and then used to convert RebE or RebD to preliminarily screen out relatively-preferred mutants.
The conversion of RebE adopted a 3 mL reaction system including. RebE as a substrate: 10 g/L, sucrose: 30 g/L, crude enzyme: 5 mg/mL, and 100 mM potassium phosphate buffer (pH 7.2): the balance. A RebE conversion reaction was conducted on a shaker at 40° C. and 200 rpm for 12 h, and corresponding conversion rates were shown in FIG. 1.

A short description of data set [4]: Crude enzyme activity of glycosyltransferase mutants and WT (HPLC). Particulars: 1.2 mM rebaudioside E, 2 mM UDPG, crude enzyme 1 mg, 37° C., 30 min. As to the method:
as §1
The four mutant strains S195Q-StSUS1, L200Y-StSUS1, T284S-StSUS1, and S285W-StSUS1 screened out in the above conversion experiment were used to produce glycosyltransferase mutants, and the glycosyltransferase mutants and the WT glycosyltransferase UGT76G1 were tested for activities. […] Thus, the optimal mutant strain S195Q-StSUS1 was screened out.

B1: UGT76G1: wild-type Stevia rebaudiana-derived glycosyltransferase, amino acid sequence SEQ ID NO: 1 (protein)
chain: MENKTETTVRRRRRIILFPVPFQGHINPILQLANVLYSKGFSITIFHTNFNKPKTSNYPHFTFRFILDNDPQDERISNLPTHGPLAGMRIPIINEHGADELRRELELLMLASEEDEEVSCLITDALWYFAQSVADSLNLRRLVLMTSSLFNFHAHVSLPQFDELGYLDPDDKTRLEEQASGFPMLKVKDIKSAYSNWQILKEILGKMIKQTKASSGVIWNSFKELEESELETVIREIPAPSFLIPLPKHLTASSSSLLDHDRTVFQWLDQQPPSSVLYVSFGSTSEVDEKDFLEIARGLVDSKQSFLWVVRPGFVKGSTWVEPLPDGFLGERGRIVKWVPQQEVLAHGAIGAFWTHSGWNSTLESVCEGVPMIFSDFGLDQPLNARYMSDVLKVGVYLENGWERGEIANAIRRVMVDEEGEYIRQNARVLKQKADVSLMKGGSSYESLESLVSYISSL
modifications: The sequence is synthetized.
B1: in data set [1], the “Kcat” value was determined as 0.20 ± 0.005 s⁻¹ and the Km was 478 ± 33 µM. In addition, in data set [2], the “Kcat” value is 2.00 ± 0.03 s⁻¹ and the Km turned out to be 170 ± 12.6 µM.

B2: T284S-StSUS1: recombinase (crude enzyme) from E. coli BL21 (DE3) co-expressing mutant T284S and sucrose synthase StSUS1 (protein)
chain: MENKTETTVRRRRRIILFPVPFQGHINPILQLANVLYSKGFSITIFHTNFNKPKTSNYPHFTFRFILDNDPQDERISNLPTHGPLAGMRIPIINEHGADELRRELELLMLASEEDEEVSCLITDALWYFAQSVADSLNLRRLVLMTSSLFNFHAHVSLPQFDELGYLDPDDKTRLEEQASGFPMLKVKDIKSAYSNWQILKEILGKMIKQTKASSGVIWNSFKELEESELETVIREIPAPSFLIPLPKHLTASSSSLLDHDRTVFQWLDQQPPSSVLYVSFGSSSEVDEKDFLEIARGLVDSKQSFLWVVRPGFVKGSTWVEPLPDGFLGERGRIVKWVPQQEVLAHGAIGAFWTHSGWNSTLESVCEGVPMIFSDFGLDQPLNARYMSDVLKVGVYLENGWERGEIANAIRRVMVDEEGEYIRQNARVLKQKADVSLMKGGSSYESLESLVSYISSL
As to B2, in data set [3], the “RebE conversion rate relative to UGT76G1-StSUS1” value is reported as 1.1 times.

B3: G378P-StSUS1: recombinase (crude enzyme) from E. coli BL21 (DE3) co-expressing mutant G378P and sucrose synthase StSUS1 (protein)
chain: MENKTETTVRRRRRIILFPVPFQGHINPILQLANVLYSKGFSITIFHTNFNKPKTSNYPHFTFRFILDNDPQDERISNLPTHGPLAGMRIPIINEHGADELRRELELLMLASEEDEEVSCLITDALWYFAQSVADSLNLRRLVLMTSSLFNFHAHVSLPQFDELGYLDPDDKTRLEEQASGFPMLKVKDIKSAYSNWQILKEILGKMIKQTKASSGVIWNSFKELEESELETVIREIPAPSFLIPLPKHLTASSSSLLDHDRTVFQWLDQQPPSSVLYVSFGSTSEVDEKDFLEIARGLVDSKQSFLWVVRPGFVKGSTWVEPLPDGFLGERGRIVKWVPQQEVLAHGAIGAFWTHSGWNSTLESVCEGVPMIFSDFPLDQPLNARYMSDVLKVGVYLENGWERGEIANAIRRVMVDEEGEYIRQNARVLKQKADVSLMKGGSSYESLESLVSYISSL
In the case of B3, the “catalytic activity / conversion rate for RebE (in words)” value (from here on “catalytic activity / conversion rate”) in data set [3] is recorded as “basically no catalytic activity”.

B4: S285W-StSUS1: recombinase (crude enzyme) from E. coli BL21 (DE3) co-expressing mutant S285W and sucrose synthase StSUS1 (protein)
chain: MENKTETTVRRRRRIILFPVPFQGHINPILQLANVLYSKGFSITIFHTNFNKPKTSNYPHFTFRFILDNDPQDERISNLPTHGPLAGMRIPIINEHGADELRRELELLMLASEEDEEVSCLITDALWYFAQSVADSLNLRRLVLMTSSLFNFHAHVSLPQFDELGYLDPDDKTRLEEQASGFPMLKVKDIKSAYSNWQILKEILGKMIKQTKASSGVIWNSFKELEESELETVIREIPAPSFLIPLPKHLTASSSSLLDHDRTVFQWLDQQPPSSVLYVSFGSTWEVDEKDFLEIARGLVDSKQSFLWVVRPGFVKGSTWVEPLPDGFLGERGRIVKWVPQQEVLAHGAIGAFWTHSGWNSTLESVCEGVPMIFSDFGLDQPLNARYMSDVLKVGVYLENGWERGEIANAIRRVMVDEEGEYIRQNARVLKQKADVSLMKGGSSYESLESLVSYISSL
B4: the “RebE conversion rate relative to UGT76G1-StSUS1” value in data set [3] stood at 1.1 times.

B5: L200Y: UGT76G1 (SEQ ID NO: 1) mutant, position 200 leucine to tyrosine (protein)
chain: MENKTETTVRRRRRIILFPVPFQGHINPILQLANVLYSKGFSITIFHTNFNKPKTSNYPHFTFRFILDNDPQDERISNLPTHGPLAGMRIPIINEHGADELRRELELLMLASEEDEEVSCLITDALWYFAQSVADSLNLRRLVLMTSSLFNFHAHVSLPQFDELGYLDPDDKTRLEEQASGFPMLKVKDIKSAYSNWQIYKEILGKMIKQTKASSGVIWNSFKELEESELETVIREIPAPSFLIPLPKHLTASSSSLLDHDRTVFQWLDQQPPSSVLYVSFGSTSEVDEKDFLEIARGLVDSKQSFLWVVRPGFVKGSTWVEPLPDGFLGERGRIVKWVPQQEVLAHGAIGAFWTHSGWNSTLESVCEGVPMIFSDFGLDQPLNARYMSDVLKVGVYLENGWERGEIANAIRRVMVDEEGEYIRQNARVLKQKADVSLMKGGSSYESLESLVSYISSL
modifications: The sequence is synthetized.
As to B5, the “enzyme activity (in words)” value in data set [4] is reported as “low enzyme activity”.

B6: S147D-StSUS1: recombinase (crude enzyme) from E. coli BL21 (DE3) co-expressing mutant S147D and sucrose synthase StSUS1 (protein)
chain: MENKTETTVRRRRRIILFPVPFQGHINPILQLANVLYSKGFSITIFHTNFNKPKTSNYPHFTFRFILDNDPQDERISNLPTHGPLAGMRIPIINEHGADELRRELELLMLASEEDEEVSCLITDALWYFAQSVADSLNLRRLVLMTDSLFNFHAHVSLPQFDELGYLDPDDKTRLEEQASGFPMLKVKDIKSAYSNWQILKEILGKMIKQTKASSGVIWNSFKELEESELETVIREIPAPSFLIPLPKHLTASSSSLLDHDRTVFQWLDQQPPSSVLYVSFGSTSEVDEKDFLEIARGLVDSKQSFLWVVRPGFVKGSTWVEPLPDGFLGERGRIVKWVPQQEVLAHGAIGAFWTHSGWNSTLESVCEGVPMIFSDFGLDQPLNARYMSDVLKVGVYLENGWERGEIANAIRRVMVDEEGEYIRQNARVLKQKADVSLMKGGSSYESLESLVSYISSL
In the case of B6, in data set [3], the “catalytic activity / conversion rate” value is “low conversion rate”.

B7: S147N-StSUS1: recombinase (crude enzyme) from E. coli BL21 (DE3) co-expressing mutant S147N and sucrose synthase StSUS1 (protein)
chain: MENKTETTVRRRRRIILFPVPFQGHINPILQLANVLYSKGFSITIFHTNFNKPKTSNYPHFTFRFILDNDPQDERISNLPTHGPLAGMRIPIINEHGADELRRELELLMLASEEDEEVSCLITDALWYFAQSVADSLNLRRLVLMTNSLFNFHAHVSLPQFDELGYLDPDDKTRLEEQASGFPMLKVKDIKSAYSNWQILKEILGKMIKQTKASSGVIWNSFKELEESELETVIREIPAPSFLIPLPKHLTASSSSLLDHDRTVFQWLDQQPPSSVLYVSFGSTSEVDEKDFLEIARGLVDSKQSFLWVVRPGFVKGSTWVEPLPDGFLGERGRIVKWVPQQEVLAHGAIGAFWTHSGWNSTLESVCEGVPMIFSDFGLDQPLNARYMSDVLKVGVYLENGWERGEIANAIRRVMVDEEGEYIRQNARVLKQKADVSLMKGGSSYESLESLVSYISSL
Take B7: the “catalytic activity / conversion rate” value in data set [3] was “basically no catalytic activity”.
